From PMC11487556 come the findings set out here.

Assay [1] addresses truncated β1 adrenergic receptor (M. gallopavo β114-E130W, without an intact ICL3) (M. gallopavo) (UniProt P07700).
In assay [2] the target is β1 adrenergic receptor with an intact ICL3 (M. gallopavo β114E130WIC3) (M. gallopavo) (UniProt P07700).

Turning to “mini Gs (engineered GTPase domain of the Gαs protein), construct R414, I208A (domain or fragment)”, the GDP release (decay of BODIPY FL GDP fluorescence) after addition of isoprenaline, 20 °C in assay [1] and in assay [2] was 60 s each time.
